# According to patent US11839630B2, “CAR-T cells targeting IL-1RAP and their use” (ETABLISSEMENT FRANCAIS DU SANG, priority 2017, dated 2023):
# System: HSCs
# Experiment: IL-1RAP cell surface staining of healthy HSCs
# Assay type: binding, human
# Experimental: FIG. 23: Effect of IL-1RAP CAR T cells on healthy hematopoietic cells and efficiency of the safety suicide gene iCASP9 cassette. (A) IL-1RAP cell surface expression on peripheral blood (left) or bone marrow (right) cells from healthy donors (n=5). SSC-A/CD45+ allowed discrimination of subpopulations as lymphocytes (SSC-A low), monocytes (CD33+), granulocytes (SSC-A high), or HSCs (CD33−/CD34+). RFI was calculated from isotype staining and provided in each window. (B) Representative (1 of 3) IL-1RAP staining of whole human cord blood cells. IL-1RAP staining is provided for whole CD34+, CD34+/CD38−, and CD34+/CD38+ HSC cord blood subpopulations. […] Percentages were calculated using absolute cell number determined using Trucount™ tubes based on 5000 fluorescent-bead cytometry acquisition. […] The quantification was performed after acquiring 5000 fluorescent beads. […] Cell killing was calculated as follows: % Dead cells=[1−(absolute number of viable cells in AP1903-treated cells/absolute number of viable cells in untreated cells)]×100. […] (G) Absolute quantification of IL-1RAP CAR T cells injected in a tumor (CML KU812, i.v.) xenograft NSG model 24 h after i.p. AP1903 (white bars) treatment (n=3 mice/group). […]
molecule,measurement,setting,value
"#E3C3: mouse anti-hIL-1RAP monoclonal antibody subclone generated by standard hybridoma technique; VH SEQ ID NO: 2, VL SEQ ID NO: 4 (antibody, V domains shown, Amino acid sequence of chain H (VH) of murine scFv anti-IL-1RAP; Amino acid sequence of chain K (VL) of murine scFv anti-IL-1RAP) VH: MGWSCIILFLVATATGVNSQVQLQQPGAELMMPGASVKVSCEASGYTFTDSWMHWVKQRPGQGLEWIGAIDPSDSYTTYNQKFTGKATLSVDESSNTAYMQLSSLTSEDSAVYYCARYYSGSNYISPFPYWGQGTLVTVSA VL: MESQIQVFVFVFLWLSGVDGDIVMTQSHKFMSTSVGDRVTITCKASLDVSTAVAWYQQKPGQSPKLLIYSASYRYTGVPDRFTGSGSGTDFTFTISSVQAEDLAVYYCQQHYSPPFTFGSGTNLEIK",detection of HSCs,bone marrow from healthy donors or normal cord blood,did not detect
same,RFI of HSC staining,"bone marrow from healthy donors, n=5",< 1.2
